Data on seven molecules can be found in PMC5095173, “Disulfide-activated protein kinase G Iα regulates cardiac diastolic relaxation and fine-tunes the Frank–Starling response” (Nature Communications, 2016).

For assay [1], the system named is PKGIα (analogue-sensitive C42S/M438G), cGMP-activated. Put plainly: Chemical genetic phosphoproteomic screen, cGMP-activated PKGIα C42S/M438G versus unactivated control. The class given is biochemical, human PKGIα; substrates in rat heart homogenate. Conditions: control = PKGIα C42S/M438G. In a few lines:
(§1)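 Substrates in rat left-ventricle homogenate (20 mg ml) are labelled by engineered Met438Gly PKGIα given a bulky N6-alkylated ATPγS analogue, either as disulfide-activated M438G (oxidized, DTT-free) or as cGMP-activated C42S/M438G. Covalent capture and LC–MS/MS identify sites relative to unactivated kinase.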

In assay [2] the test system is PKGIα (analogue-sensitive M438G), disulfide-activated. The assay can be described thus: Chemical genetic phosphoproteomic screen, disulfide-activated PKGIα M438G versus unactivated control. Type of assay: biochemical, human PKGIα; substrates in rat heart homogenate. The note with it: control = PKGIα C42S/M438G. In a few lines: as §1

B1: Hspb6 pS16 (protein, UniProt P97541 1-162, looked up)
Heat shock protein beta-6: MEIRVPVQPSWLRRASAPLPGFSTPGRLFDQRFGEGLLEAELASLCPAAIAPYYLRAPSVALPTAQVPTDPGYFSVLLDVKHFSPEEISVKVVGDHVEVHARHEERPDEHGFIAREFHRRYRLPPGVDPAAVTSALSPEGVLSIQATPASAQASLPSPPAAK
modifications: phosphorylated at S16
As for B1, the “log2 fold change cGMP vs Control” value in assay [1] is reported as 2.607. In assay [2], the “log2 fold change Disulfide vs Control” value came out at 1.245.

B2: Hspb1 pS9 (protein, UniProt P14602 1-209, looked up)
Heat shock protein beta-1: MTERRVPFSLLRSPSWEPFRDWYPAHSRLFDQAFGVPRLPDEWSQWFSAAGWPGYVRPLPAATAEGPAAVTLAAPAFSRALNRQLSSGVSEIRQTADRWRVSLDVNHFAPEELTVKTKEGVVEITGKHEERQDEHGYISRCFTRKYTLPPGVDPTLVSSSLSPEGTLTVEAPLPKAVTQSAEITIPVTFEARAQIGGPEAGKSEQSGAK
modifications: phosphorylated S9
For the molecule B2, the “log2 fold change cGMP vs Control” value in assay [1] was determined as 1.482. Also, the “log2 fold change Disulfide vs Control” value in assay [2] is given as -0.3759.

B3: Hmga1 pS36 (protein, UniProt P17095 2-107, looked up)
High mobility group protein …: SESGSKSSQPLASKQEKDGTEKRGRGRPRKQPPVSPGTALVGSQKEPSEVPTPKRPRGRPKGSKNKGAAKTRKVTTAPGRKPRGRPKKLEKEEEEGISQESSEEEQ
modifications: phosphorylated S36
Turning to B3, the “log2 fold change cGMP vs Control” value in assay [1] is 4.39. For the same molecule, the “log2 fold change Disulfide vs Control” value in assay [2] is recorded as 1.6764.

B4: Fhl2 pS255 (protein, UniProt O70433 1-279, looked up)
Four and a half LIM domains …: MTERFDCHHCNESLYGKKYILKEENPHCVACFEELYANTCEECGTPIGCDCKDLSYKDRHWHEGCFHCSRCGSSLVDKPFAAKEEQLLCTDCYSNEYSSKCQECKKTIMPGTRKMEYKGSSWHETCFTCQRCQQPIGTKSFIPKENQNFCVPCYEKQYALQCVQCKKPITTGGVTYREQPWHKECFVCTACKKQLSGQRFTARDEFPYCLTCFCDLYAKKCAGCTNPISGLGGTKYISFEERQWHNDCFNCKKCSLSLVGRGFLTERDDILCPDCGKDI
modifications: phosphorylated S255
As for B4, in assay [1], the “log2 fold change cGMP vs Control” value is listed as 3.732. Moreover, in assay [2], the “log2 fold change Disulfide vs Control” value is reported as 1.662.

B5: Jph2 pS240 (protein, UniProt Q2PS20 1-692, looked up)
Junctophilin-2: MSGGRFDFDDGGAYCGGWEGGKAHGHGLCTGPKGQGEYSGSWNFGFEVAGVYTWPSGNTFEGYWSQGKRHGLGIETKGRWLYKGEWTHGFKGRYGIRQSTNSGAKYEGTWNNGLQDGYGTETYADGGTYQGQFTNGMRHGYGVRQSVPYGMAVVVRSPLRTSLSSLRSEHSNGTVAPDSPAADGPTLPLPPVPRGGFALSLLATAEAARPPGLFTRGALLGRLRRSESRTSLGSQRSRLSFLKSELSSGASDAASTGSLAEGAEGPDDAAAPFDADIDATTTETYMGEWKNDKRSGFGVSERSSGLRYEGEWLDNLRHGYGRTTLPDGHREEGKYRHNVLVKGTKRRVLPLKSNKVRQKVEHGVEGAQRAAAIARQKAEIAASRTSHAKAKAEAAEQAALAANQESNIARTLAKELAPDFYQPGPEYQKRRLLQEILENSESLLEPRERGPGTGLPERPRESPQLHERETPQPEGGPPSPAGTPPQPKRPRPGSSKDGLLSPGAWNGEPGGEGSRPATPSDGAGRRSPARPASEHMAIEALQPPPAPSREPEVALYRGYHSYAVRTGPPEPPPLEDEPEPEPEVPRSDSEPPSPVSATVQEEESPAPRSRVPAKPATLEPKPIVPKAEPKAKARKTEARGLSKAGAKKKGRKEVAQEAEAEVEVEEVPNTVLICMVILLNIGLAILFVHLLT
modifications: phosphorylated at S240
B5: the “log2 fold change cGMP vs Control” value in assay [1] was found to be 0.1615. Moreover, the “log2 fold change Disulfide vs Control” value in assay [2] came out at 0.2694.

B6: Rrad pS25 (protein, UniProt P55043 1-306, looked up)
GTP-binding protein RAD: MTLNGGSGAGGSRSAGRERDRRRGSTPWGPAPPLHRRSMPVDERDLQAALTPGSLAATAAGTRTQGQRLDWPEGSSDSLSSGDSGSEDGVYKVHAAGAPGVGKSALARIFGGVEDGPEAEAAGHTYDRSITVDGEEASLMVYDIWEQDGGCWLPGHCMAMGDAYVIVYSITDKGSFEKASELRVQLRARRQTDVPIILVGNKSDLVRSREVSVDEGRACAEVFDCKFIETSAALHHNVQALFEGVVRQIRLRRDSKEDNARRQAGTRRRESLGKKAKLFLGRIVARNSRKMAFLAKSKSCHDLSVL
modifications: phosphorylated at S25
As to B6, in assay [1], the “log2 fold change cGMP vs Control” value is -0.2363. Moreover, the “log2 fold change Disulfide vs Control” value in assay [2] is given as -0.2493.

B7: Gpsm1 pS567 (protein, UniProt Q9R080 1-673, looked up)
G-protein-signaling modulator …: MASPAPPAAEELPGPAARRLYSRMEASCLELALEGERLCKAGDFKAGVAFFEAAVQVGTEDLKTLSAIYSQLGNAYFYLKEYARALQFHKHDLLLARTIGDRMGEAKASGNLGNTLKVLGRFDEAIVCCQRHLDIAQEQGDKVGEARALYNIGNVYHAKGKQLSWNAAQDPGHLPPDVRETLHRASEFYERNLSLVKELGDRAAQGRAYGNLGNTHYLLGNFTEATTFHKERLAIAKEFGDKAAERRAYSNLGNAHIFLGRFDVAAEHYKKTLQLSRQIRDQAVEAQACYSLGNTYTLLQDYERAAEYHLRHLVIAQELADRVGEGRACWSLGNAYVSMGSPAQALTFAKKHLQISQEIGDRNGELTARMNIAHLQLALGRLTSPAAAEKPDLAGYEAQGARPKRTQRLSAETWDLLRLPLDREQNGETHHTGDWRGPSRDSLPLPMRSRKYQEGPDAIERRPREGSHSPLDSADVRVQVPRTGIPRAPSSDEECFFDLLSKFQSSRMDDQRCPLEEGQAGAAEATAAPTLEERAAQPSVTASPQTEEFFDLIASSQSRRLDDQRASVGSLPGLRITLNNVGHLRGDGDPQEPGDEFFNMLIKYQSSRIDDQRCPPPDVLPRGPTMPDEDFFSLIQRVQAKRMDEQRVDLAGSPDQEASGLPDPRQQCPPGAS
modifications: phosphorylated at S567
For the molecule B7, the “log2 fold change cGMP vs Control” value in assay [1] is 2.926. In assay [2], the “log2 fold change Disulfide vs Control” value is reported as 1.042.
